Changes are numbered by the printed parent chain. Blank lines part the entries; values can stand above or below the substance they belong to.
Legend:
[1] = target: OTR F175A, N-terminal SNAP-tag (human) (UniProt P30559)
[2] = target: OTR Q92A, N-terminal SNAP-tag (human) (UniProt P30559)
[3] = target: OTR W188A, N-terminal SNAP-tag (human) (UniProt P30559)
[4] = target: OTR F291A, N-terminal SNAP-tag (human) (UniProt P30559)
[5] = target: T1, truncated V1AR (residues 1-378 with C-terminal mutation T378K), N-terminal SNAP-tag (human) (UniProt P37288)
T1 sequence: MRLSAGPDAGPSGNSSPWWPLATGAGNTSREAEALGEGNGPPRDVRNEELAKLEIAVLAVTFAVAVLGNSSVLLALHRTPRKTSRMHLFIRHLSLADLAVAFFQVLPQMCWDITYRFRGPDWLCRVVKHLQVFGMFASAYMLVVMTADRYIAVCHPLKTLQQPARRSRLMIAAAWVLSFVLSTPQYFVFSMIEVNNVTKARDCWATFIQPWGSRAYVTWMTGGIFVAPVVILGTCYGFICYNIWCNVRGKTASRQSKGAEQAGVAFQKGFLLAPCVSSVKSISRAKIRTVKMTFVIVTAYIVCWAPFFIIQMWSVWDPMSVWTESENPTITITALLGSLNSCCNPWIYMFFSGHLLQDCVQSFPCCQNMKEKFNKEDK

[6] = target: OTR A318G, N-terminal SNAP-tag (human) (UniProt P30559)
[7] = target: OTR I201A, N-terminal SNAP-tag (human) (UniProt P30559)
[8] = target: OTR-D153Y, N-terminal SNAP-tag (human) (UniProt P30559)
[9] = target: OTR F292A, N-terminal SNAP-tag (human) (UniProt P30559)
[10] = target: wild-type human oxytocin receptor, full length, N-terminal SNAP-tag (human) (UniProt P30559)
[11] = target: OTR K116A, N-terminal SNAP-tag (human) (UniProt P30559)
[12] = target: OTR L316A, N-terminal SNAP-tag (human) (UniProt P30559)
[13] = target: OTR Q171N, N-terminal SNAP-tag (human) (UniProt P30559)
[14] = target: OTR Q96A, N-terminal SNAP-tag (human) (UniProt P30559)
[15] = target: OTR Q295A, N-terminal SNAP-tag (human) (UniProt P30559)
[16] = target: OTR Q119A, N-terminal SNAP-tag (human) (UniProt P30559)
[17] = target: OTR Q171A, N-terminal SNAP-tag (human) (UniProt P30559)
[18] = target: T2, truncated V1AR (residues 1-378, T378K) G337A, N-terminal SNAP-tag (human) (UniProt P37288)
T2 sequence: T1 sequence with G337A

[19] = target: T1, truncated V1AR (residues 1-378 with C-terminal mutation T378K), N-terminal SNAP-tag (human); test: AlphaScreen or HTRF; whole-cell saturation binding; SNAP-tagged receptor on transfected HEK293T/17 cells labelled with SNAP-Lumi4-Tb; concentration range of HiLyte Fluor 488-Orn8 oxytocin, 1 h at room temperature in 20 mM Hepes pH 7.5, 100 mM KCl, 3 mM MgCl2, 0.05% BSA; nonspecific binding with 1000-fold excess of unlabelled oxytocin; one-site saturation fit
[20] = target: OTR A318G, N-terminal SNAP-tag (human) (UniProt P30559); test: as above
[21] = target: OTR-D153Y, N-terminal SNAP-tag (human) (UniProt P30559); test: as above
[22] = target: wild-type human oxytocin receptor, full length, N-terminal SNAP-tag (human) (UniProt P30559); test: as above
[23] = target: T2, truncated V1AR (residues 1-378, T378K) G337A, N-terminal SNAP-tag (human); test: as above

Sequence of oxytocin (P01178 whole entry, looked up, the tested form may be a part): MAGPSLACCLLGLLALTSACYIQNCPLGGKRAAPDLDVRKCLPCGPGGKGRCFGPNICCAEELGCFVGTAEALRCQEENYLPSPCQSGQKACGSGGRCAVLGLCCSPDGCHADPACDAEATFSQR

OT-induced IP1 accumulation (HTRF IP-One) in transfected HEK293T cells, EC50 [1]: 3.48 µM
OT-induced IP1 accumulation (HTRF IP-One) in transfected HEK293T cells, EC50 [2]: 0.222 µM
OT-induced IP1 accumulation (HTRF IP-One) in transfected HEK293T cells, EC50 [3]: 0.156 µM
OT-induced IP1 accumulation (HTRF IP-One) in transfected HEK293T cells, EC50 [4]: 0.542 µM
OT-induced IP1 accumulation (HTRF IP-One) in transfected HEK293T cells, EC50 [5]: 0.158 µM
OT-induced IP1 accumulation (HTRF IP-One) in transfected HEK293T cells, EC50 [6]: 0.0046 µM
OT-induced IP1 accumulation (HTRF IP-One) in transfected HEK293T cells, EC50 [7]: 0.0895 µM
OT-induced IP1 accumulation (HTRF IP-One) in transfected HEK293T cells, EC50 [8]: 0.0429 µM
OT-induced IP1 accumulation (HTRF IP-One) in transfected HEK293T cells, EC50 [9]: 0.0061 µM
OT-induced IP1 accumulation (HTRF IP-One) in transfected HEK293T cells, EC50 [10]: 0.0084 µM
OT-induced IP1 accumulation (HTRF IP-One) in transfected HEK293T cells, EC50 [11]: 0.0061 µM
OT-induced IP1 accumulation (HTRF IP-One) in transfected HEK293T cells, EC50 [12]: 0.0219 µM
OT-induced IP1 accumulation (HTRF IP-One) in transfected HEK293T cells, EC50 [13]: 0.0391 µM
OT-induced IP1 accumulation (HTRF IP-One) in transfected HEK293T cells, EC50 [14]: 1.54 µM
OT-induced IP1 accumulation (HTRF IP-One) in transfected HEK293T cells, EC50 [15]: 0.0513 µM
OT-induced IP1 accumulation (HTRF IP-One) in transfected HEK293T cells, EC50 [16]: 0.444 µM
OT-induced IP1 accumulation (HTRF IP-One) in transfected HEK293T cells, EC50 [17]: 0.993 µM
OT-induced IP1 accumulation (HTRF IP-One) in transfected HEK293T cells, EC50 [18]: 0.25 µM
Substance: oxytocin (from UniProt P01178 20-28) (peptide)

Substance: HiLyte Fluor 488-Orn^8 oxytocin (from UniProt P01178 20-28) (peptide)
Kd [19]: 0.0093 µM
Kd [20]: 0.0009 µM
Kd [21]: 0.0064 µM
Kd [22]: 0.0014 µM
Kd [23]: 0.0209 µM
